Assay results from publication PMC4380771 (Methods (San Diego, Calif.), 2014).
Where “and” joins values, the source holds several entries; their conditions need not be identical. Identical values can stand only once. Like-named read-outs stand apart in the source and are kept apart here.

How the values were obtained:
[1] = target: T1, Tp0655 (Treponema pallidum, UniProt O83661); experiment: isothermal titration calorimetry; format: binding
T1 sequence (O83661 24-348): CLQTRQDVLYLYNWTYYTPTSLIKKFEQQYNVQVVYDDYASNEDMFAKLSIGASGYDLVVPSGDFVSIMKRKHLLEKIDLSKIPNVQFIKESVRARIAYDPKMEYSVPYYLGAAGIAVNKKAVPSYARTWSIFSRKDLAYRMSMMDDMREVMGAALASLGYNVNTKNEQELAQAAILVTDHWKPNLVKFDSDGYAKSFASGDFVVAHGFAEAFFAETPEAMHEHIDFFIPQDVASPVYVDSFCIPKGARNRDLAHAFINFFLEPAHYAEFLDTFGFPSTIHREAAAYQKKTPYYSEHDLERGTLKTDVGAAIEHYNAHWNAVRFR

[2] = target: SynIIIC (Rattus norvegicus, UniProt O70441); experiment: isothermal titration calorimetry; format: binding
[3] = target: hLF (UniProt P02788); experiment: ITC
[4] = target: HIF2α (Homo sapiens, UniProt Q99814); experiment: isothermal titration calorimetry; format: binding
[5] = target: bovine α-chymotrypsin (bovine); experiment: ITC
[6] = target: bovine α-chymotrypsin (bovine); experiment: ITC; remark: listed apart in the source
[7] = target: bovine α-chymotrypsin (bovine); experiment: ITC; remark: listed apart in the source

hLF, sequence (P02788 20-710): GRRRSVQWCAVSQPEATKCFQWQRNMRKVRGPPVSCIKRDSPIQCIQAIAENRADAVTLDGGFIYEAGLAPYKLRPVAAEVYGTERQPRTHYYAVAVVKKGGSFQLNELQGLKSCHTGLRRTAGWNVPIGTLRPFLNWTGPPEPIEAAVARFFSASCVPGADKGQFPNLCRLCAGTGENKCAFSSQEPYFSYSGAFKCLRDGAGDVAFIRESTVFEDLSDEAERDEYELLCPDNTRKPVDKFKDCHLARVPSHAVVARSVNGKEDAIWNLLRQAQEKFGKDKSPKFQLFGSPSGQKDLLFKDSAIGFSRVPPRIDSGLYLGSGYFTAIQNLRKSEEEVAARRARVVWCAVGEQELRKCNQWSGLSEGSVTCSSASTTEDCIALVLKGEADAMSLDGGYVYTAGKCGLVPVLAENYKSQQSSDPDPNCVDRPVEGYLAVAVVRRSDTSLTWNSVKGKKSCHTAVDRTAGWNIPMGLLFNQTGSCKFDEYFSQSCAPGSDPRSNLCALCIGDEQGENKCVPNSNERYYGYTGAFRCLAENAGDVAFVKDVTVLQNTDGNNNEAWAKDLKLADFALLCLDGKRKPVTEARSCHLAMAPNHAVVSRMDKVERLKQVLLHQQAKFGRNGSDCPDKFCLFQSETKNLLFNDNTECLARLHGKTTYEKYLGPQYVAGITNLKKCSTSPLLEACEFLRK
SynIIIC, sequence (O70441 89-403): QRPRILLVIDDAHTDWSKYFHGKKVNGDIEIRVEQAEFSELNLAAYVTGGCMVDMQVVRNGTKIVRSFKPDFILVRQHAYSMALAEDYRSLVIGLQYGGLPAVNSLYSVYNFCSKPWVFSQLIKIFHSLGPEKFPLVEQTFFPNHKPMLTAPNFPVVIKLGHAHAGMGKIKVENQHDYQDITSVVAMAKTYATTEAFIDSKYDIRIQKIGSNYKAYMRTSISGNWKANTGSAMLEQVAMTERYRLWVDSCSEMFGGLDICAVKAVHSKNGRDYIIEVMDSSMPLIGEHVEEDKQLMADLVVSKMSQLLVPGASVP
HIF2α, sequence (Q99814 239-350): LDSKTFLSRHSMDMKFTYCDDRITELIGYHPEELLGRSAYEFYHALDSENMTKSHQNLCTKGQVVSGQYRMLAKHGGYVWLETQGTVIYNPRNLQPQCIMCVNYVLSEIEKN

NCCCN [DAP]
Kd [1]: 36.2 µM

Nc1ncnc2c1ncn2[C@@H]1O[C@H](COP(=O)(O)OP(=O)(O)OP(=O)(O)O)[C@@H](O)[C@H]1O [ATP]
Kd [2]: 0.136 µM

NCCCCN [Putrescine]
Kd [1]: 0.117 µM

Tp34 (files named H70ATp34hLF...) (from UniProt P19478 20-204) (natural protein)
dH [3]: 4.9 kcal/mol

NCCCCNCCCN [Spermidine]
Kd [1]: 2.37 µM

O=[N+]([O-])c1c(Nc2cc(F)cc(Cl)c2)ccc2nonc12 [HBA, N-(3-Chloro-5-fluorophenyl)-4-nitrobenzo[c][1,2, 5]oxadiazol-5-amine]
Kd [4]: 0.105 µM

Soybean trypsin inhibitor (from UniProt P01070 25-205) (natural protein)
dH [5]: 10.5 kcal/mol (2×) and 10.3 kcal/mol | logKa [5]: 6.99 and 7 and 6.9 | dH [6]: 10.3 kcal/mol and 10.9 kcal/mol and 9.7 kcal/mol | logKa [6]: 7.27 | dH [7]: 10.5 kcal/mol (2×) and 10.4 kcal/mol | log(Ka) [7]: 6.89 and 6.98 and 7

Tp34 (from UniProt P19478 20-204) (natural protein)
Kd [3]: 11.3 µM and 11 µM and 22.3 µM | log(Ka) [3]: 4.95 | logKa [3]: 4.96 and 4.65
